Tested on: Escherichia coli TOP10
Assay: shrunken log2 fold change of peptide-encoding DNA abundance (4.5 h post-induction vs induction); higher = less antimicrobial activity (less host growth inhibition)
Conditions: time post-induction: 4.5 h; library: site-saturation at positions 5, 18, 19, 20
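Note: peptides expressed intracellularly from a pBAD plasmid library in pooled LB shake-flask culture, induced with 0.3% L-arabinose, DNA abundance read by NGS, three biological replicates, DESeq2 with apeglm shrinkage.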

Sequence | shrunken log2 fold change
RRIRHRPPRLPRPRPRPNRMPRP | 0.0166
RRIRHRPPRLPRPRPRPNRRPRP | -0.00884
RRIRHRPPRLPRPRPRPNRSPRP | -0.413
RRIRHRPPRLPRPRPRPNSMPRP | -0.401
RRIRHRPPRLPRPRPRPNSRPRP | -0.0698
RRIRHRPPRLPRPRPRPNTHPRP | -0.856
RRIRHRPPRLPRPRPRPNVFPRP | -0.116
RRIRHRPPRLPRPRPRPNVMPRP | 0.0213
RRIRHRPPRLPRPRPRPNWCPRP | -0.00989
RRIRHRPPRLPRPRPRPNWGPRP | 0.0702
RRIRHRPPRLPRPRPRPNWPPRP | 0.234
RRIRHRPPRLPRPRPRPNWRPRP | 0.0926
RRIRHRPPRLPRPRPRPNYSPRP | -0.915
RRIRHRPPRLPRPRPRPNYYPRP | -0.639
RRIRHRPPRLPRPRPRPPCRPRP | -0.0923
RRIRHRPPRLPRPRPRPPCTPRP | 0.0262
RRIRHRPPRLPRPRPRPPDIPRP | -0.0817
RRIRHRPPRLPRPRPRPPDRPRP | 0.385
RRIRHRPPRLPRPRPRPPDSPRP | 0.139
RRIRHRPPRLPRPRPRPPFCPRP | 0.00537
RRIRHRPPRLPRPRPRPPFPPRP | 0.0224
RRIRHRPPRLPRPRPRPPGEPRP | 0.418

Sequence | shrunken log2 fold change
RRIRHRPPRLPRPRPRPPGLPRP | 0.0255
RRIRHRPPRLPRPRPRPPGRPRP | 0.593
RRIRHRPPRLPRPRPRPPGVPRP | 0.0725
RRIRHRPPRLPRPRPRPPHKPRP | 0.0336
RRIRHRPPRLPRPRPRPPICPRP | -0.0463
RRIRHRPPRLPRPRPRPPIQPRP | 0.0855
RRIRHRPPRLPRPRPRPPLRPRP | 0.287
RRIRHRPPRLPRPRPRPPNDPRP | -0.471
RRIRHRPPRLPRPRPRPPPMPRP | 0.557
RRIRHRPPRLPRPRPRPPRYPRP | 0.0399
RRIRHRPPRLPRPRPRPPSNPRP | 0.0232
RRIRHRPPRLPRPRPRPPSYPRP | -0.266
RRIRHRPPRLPRPRPRPPTEPRP | 0.159
RRIRHRPPRLPRPRPRPPTHPRP | -0.117
RRIRHRPPRLPRPRPRPPVLPRP | 0.0936
RRIRHRPPRLPRPRPRPPVNPRP | 0.0303
RRIRHRPPRLPRPRPRPPVTPRP | -0.0642
RRIRHRPPRLPRPRPRPPWQPRP | -0.0158
RRIRHRPPRLPRPRPRPPWSPRP | 0.093
RRIRHRPPRLPRPRPRPQAPPRP | -0.0401
RRIRHRPPRLPRPRPRPQARPRP | 0.225
RRIRHRPPRLPRPRPRPQAVPRP | 0.00884

Sequence | shrunken log2 fold change
RRIRHRPPRLPRPRPRPQCVPRP | 0.00938
RRIRHRPPRLPRPRPRPQFMPRP | -0.864
RRIRHRPPRLPRPRPRPQGIPRP | 0.0372
RRIRHRPPRLPRPRPRPQICPRP | 0.00386
RRIRHRPPRLPRPRPRPQIDPRP | -0.123
RRIRHRPPRLPRPRPRPQIQPRP | -0.0515
RRIRHRPPRLPRPRPRPQKIPRP | 0.0342
RRIRHRPPRLPRPRPRPQKMPRP | -0.132
RRIRHRPPRLPRPRPRPQLKPRP | 0.114
RRIRHRPPRLPRPRPRPQLVPRP | -0.0576
RRIRHRPPRLPRPRPRPQMAPRP | -0.191
RRIRHRPPRLPRPRPRPQMMPRP | -0.279
RRIRHRPPRLPRPRPRPQNRPRP | -0.0146
RRIRHRPPRLPRPRPRPQNWPRP | 0.0558
RRIRHRPPRLPRPRPRPQPVPRP | 0.259
RRIRHRPPRLPRPRPRPQQDPRP | -0.147
RRIRHRPPRLPRPRPRPQQWPRP | -0.178
RRIRHRPPRLPRPRPRPQQYPRP | -0.706
RRIRHRPPRLPRPRPRPQRPPRP | 0.183
RRIRHRPPRLPRPRPRPQSQPRP | -0.127
RRIRHRPPRLPRPRPRPQTAPRP | 0.00296
RRIRHRPPRLPRPRPRPQTHPRP | -0.143

Sequence | shrunken log2 fold change
RRIRHRPPRLPRPRPRPQTMPRP | 3.11
RRIRHRPPRLPRPRPRPQWEPRP | -0.0718
RRIRHRPPRLPRPRPRPQWHPRP | -0.299
RRIRHRPPRLPRPRPRPQYWPRP | -0.806
RRIRHRPPRLPRPRPRPRDPPRP | -0.153
RRIRHRPPRLPRPRPRPRDSPRP | 0.0922
RRIRHRPPRLPRPRPRPRDVPRP | -0.191
RRIRHRPPRLPRPRPRPREKPRP | -0.0164
RRIRHRPPRLPRPRPRPRFHPRP | -0.162
RRIRHRPPRLPRPRPRPRFQPRP | 0.00482
RRIRHRPPRLPRPRPRPRFYPRP | -0.015
RRIRHRPPRLPRPRPRPRGFPRP | 0.0657
RRIRHRPPRLPRPRPRPRIMPRP | -0.577
RRIRHRPPRLPRPRPRPRITPRP | -0.0394
RRIRHRPPRLPRPRPRPRKVPRP | -0.0134
RRIRHRPPRLPRPRPRPRLCPRP | 0.0797
RRIRHRPPRLPRPRPRPRLGPRP | 0.143
RRIRHRPPRLPRPRPRPRMSPRP | -0.0693
RRIRHRPPRLPRPRPRPRNSPRP | -0.05
RRIRHRPPRLPRPRPRPRNYPRP | -0.282
RRIRHRPPRLPRPRPRPRQFPRP | -0.0158
RRIRHRPPRLPRPRPRPRQPPRP | 0.474

Sequence | shrunken log2 fold change
RRIRHRPPRLPRPRPRPRQRPRP | 0.162
RRIRHRPPRLPRPRPRPRRFPRP | 0.379
RRIRHRPPRLPRPRPRPRTQPRP | 0.0696
RRIRHRPPRLPRPRPRPRTRPRP | 0.476
RRIRHRPPRLPRPRPRPRWEPRP | 0.136
RRIRHRPPRLPRPRPRPRYMPRP | -0.559
RRIRHRPPRLPRPRPRPSAFPRP | -0.435
RRIRHRPPRLPRPRPRPSAMPRP | 0.06
RRIRHRPPRLPRPRPRPSAVPRP | -0.341
RRIRHRPPRLPRPRPRPSFFPRP | -0.41
RRIRHRPPRLPRPRPRPSFVPRP | -0.38
RRIRHRPPRLPRPRPRPSGIPRP | -0.0153
RRIRHRPPRLPRPRPRPSHDPRP | -0.0756
RRIRHRPPRLPRPRPRPSHIPRP | -0.307
RRIRHRPPRLPRPRPRPSIPPRP | -0.868
RRIRHRPPRLPRPRPRPSIVPRP | -0.0474
RRIRHRPPRLPRPRPRPSKVPRP | -0.146
RRIRHRPPRLPRPRPRPSLMPRP | 0.0202
RRIRHRPPRLPRPRPRPSNQPRP | -0.616
RRIRHRPPRLPRPRPRPSNTPRP | -0.278
RRIRHRPPRLPRPRPRPSPAPRP | 0.108

From the supplement of paper PMC9112550, “Optimization of the antimicrobial peptide Bac7 by deep mutational scanning” (BMC Biology, 2022)
